According to US20250011456A1, “ANTIBODIES AGAINST CD14 AND USES THEREOF” (Villanelle Life Science Inc, priority 2023, published 2025):
Where a chain is given by its changes, count along the chain named.

T1: human CD14 antigen (B294801, histidine tagged) (Homo sapiens, UniProt P08571)
T1 construct: His; purchased Shanghai BaiYing Biotechnology Co., Ltd B294801 (Batch number 20200518A22)
T1 sequence (P08571 20-345): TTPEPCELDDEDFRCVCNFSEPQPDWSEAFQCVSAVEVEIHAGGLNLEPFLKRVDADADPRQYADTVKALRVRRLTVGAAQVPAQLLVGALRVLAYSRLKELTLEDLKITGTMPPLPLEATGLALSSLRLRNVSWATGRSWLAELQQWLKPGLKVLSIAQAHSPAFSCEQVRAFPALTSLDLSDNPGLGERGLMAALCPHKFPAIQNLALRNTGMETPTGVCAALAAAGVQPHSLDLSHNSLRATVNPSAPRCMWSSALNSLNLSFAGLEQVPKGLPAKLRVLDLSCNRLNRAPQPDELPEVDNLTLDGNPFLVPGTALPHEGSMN

B1: MPDDAD003: D6DD3D014-derived antibody with PTM site removed; VL amino acid nos. 34, 35: TS (antibody, V domains shown)
VH: QLQLQESGPGLVKPSETLSLTCTVSGGSISSDSAWNWIRQPPGKGLEWIGYISYSGSTSYNPSLKSRVTISRDTSKNQFSLKLSSVTAADTAVYYCVRGLRFAYWGQGTLVTVSS
VL: DIQLTQSPSSLSASVGDRVTITCRASESVDSYVTSFLHWYQQKPGKAPKLLIYRASNLQSGVPSRFSGSGSRTDFTLTISSLQPEDVATYYCQQSNEDPYTFGQGTKLEIK
B2: MPDDAD002: D6DD3D014-derived antibody with PTM site removed; VL amino acid nos. 34, 35: SS (antibody, V domains shown)
VH: B1 VH
VL: B1 VL with T34S
B3: MPDDAD005: D6DD3D014-derived antibody with PTM site removed; VL amino acid nos. 34, 35: QS (antibody, V domains shown)
VH: B1 VH
VL: B1 VL with T34Q
B4: MPDDAD004: D6DD3D014-derived antibody with PTM site removed; VL amino acid nos. 34, 35: NA (antibody, V domains shown)
VH: B1 VH
VL: B1 VL with T34N, S35A
B5: MPDDAD001: D6DD3D014-derived antibody with PTM site removed; VL amino acid nos. 34, 35: DS (antibody, V domains shown)
VH: B1 VH
VL: B1 VL with T34D

These molecules were tested against T1, human CD14 antigen (B294801, histidine tagged) (assay: Biacore 8K kinetic and affinity test of antibodies without PTM sites (Example 9)). Conditions: Biacore 8K, analyte B294801 0.1953125-25 nM, capture conc. 1 μg/mL.
Type: binding
Procedure: Experimental reagents and consumables included cell culture fluid, electroporation buffer, CHO cells, 1 mL electroporation cuvette, Protein A chip (Cytiva, 29127556), various sizes of shake flasks, and various sizes of pipettes. Main instruments and equipment included a shaker (Taicang Huamei), centrifuge (Baiyang), ultrapure water system (Millipore), constant temperature incubator (BLUE PARD), electroporator, water bath, Biacore 8K (Cytiva), and ELISA system (Molecular Devices).
The antigen used for the binding affinity measurements is B294801. This antigen is a human CD14 antigen that is histidine tagged. D6DD3D001 is a mouse antibody, and MPDDAD001-MPDDAD005 are humanized antibodies. The antibodies are recombinant, human (hFc Tag). Selected parameters of the experimental samples are shown in Table 9-1, with MW referring to molecular weight in kDa.
The Biacore 8K platform was used to test the kinetic and affinity properties of the antibody, operating according to system instructions and indications.
Results of Affinity Detection. The affinity of the six antibodies was measured at saturation concentration. For the experiments, the analyte solution comprises the B294801 antigen with an analyte concentration of 0.1953125 nM, 0.390625 nM, 0.78125 nM, 1.5625 nM, 3.125 nM, 6.25 nM, 12.5 nM, and 25 nM. Change factor is described above.

Row | Koff | kon (1:1 binding) | Molecule
1 | 0.0026 s⁻¹ | 1.29e+06 M⁻¹ s⁻¹ | B1
2 | 0.00362 s⁻¹ | 1.29e+06 M⁻¹ s⁻¹ | B2
3 | 0.00544 s⁻¹ | 1.11e+06 M⁻¹ s⁻¹ | B3
4 | 0.0046 s⁻¹ | 775000 M⁻¹ s⁻¹ | B4
5 | 0.00633 s⁻¹ | 847000 M⁻¹ s⁻¹ | B5

Same assay, conditions: Biacore; B294801 antigen

Row | Molecule | affinity compared with the humanized antibody D6DD3D014 | affinity compared with the murine antibody D6DD3D001
6 | B1 | approximately equivalent to the affinity of the humanized antibody D6DD3D014 | within three times less than the affinity of the murine antibody D6DD3D001
